From paper PMC8048842, “A Cyanine‐Bridged Somatostatin Hybrid Probe for Multimodal SSTR2 Imaging in Vitro and in Vivo: Synthesis and Evaluation” (Chembiochem, 2021)
Read-outs that look alike come from different tables or passages of the source.

Columns and labels:
[1] = test system: BON‐SSTR2 cells; assay: Toxicity test, metabolic activity (AlamarBlue); assay type: cell-based, human; settings: 96 h treatment, up to a concentration of 10 μM, quadruplicates, n=2 (Figure S2)
Protocol: (§1) Toxicity tests: BON‐SSTR2 cells were seeded in quadruplicates in 96 well plates at a density of 5,000 cells per well and grown overnight. […] Metabolic activity and cell number were determined after another 96 h. For this, 100 μL medium containing AlamarBlue™ redox indicator (ThermoFisher) were added on top of each well, incubated for 3–4 h and the resulting fluorescence was measured using an EnVision Multilabel Plate Reader (PerkinElmer). Afterwards, the supernatant was removed; cells were fixated with 4 % v/v formaldehyde for 10 min and stained with 1 μg/mL DAPI in PBS/0.1 % v/v Triton for another 10 min. Four fields per well were imaged using an IN Cell Analyzer 1000 (GE Healthcare) with a 4x objective and nuclei were counted by Investigator software (GE Healthcare). All values were normalized to the control treated with vehicle and analyzed using GraphPad Prism 5.04.

[2] = test system: BON‐SSTR2 cells; assay: Toxicity test, cell number (DAPI nuclei counting); assay type: cell-based, human; settings: 96 h treatment, up to a concentration of 10 μM, quadruplicates, n=2 (Figure S2)
Protocol: as §1

[3] = target: T1, ratSSTR2‐GFP fusion protein (Rattus norvegicus, UniProt P30680); assay: Endocytosis / receptor internalization assay in RIN1038 cells; assay type: cell-based
T1 construct: expressed in transfected cells
Excerpt: Endocytosis assay: Rat insulinoma RIN1038 cells stably expressing a ratSSTR2‐GFP fusion protein almost exclusively show green cell membrane fluorescence in the resting state while in the presence of a functional agonist, the receptor‐GFP fusion protein is translocated to a perinuclear endocytic vesicle compartment. This shift is readily recognized by inspection of the fluorescent image and can be detected by software‐based quantitation algorithms. […] Mounted cells were imaged using a confocal laser‐scanning microscope (LSM510, Carl Zeiss) with a helium–neon laser at 488 and 543 nm, BP505‐525 and LP560 emission filters and a 63x NeoFluar oil immersion objective. […] For automated microscopy, microscopic fluorescence images were recorded by an IN Cell Analyzer 1000 (GE Healthcare) with 20x magnification at 5 frames per well in a 96 well format. Image processing was performed with In Cell Investigator software (GE Healthcare) applying the provided granularity algorithm. The output of the analysis was indicated as vesicle area/cell and was utilized for calculation of concentration‐response curves resulting in the determination of half‐maximal activity (EC50).

[4] = in vivo; settings: female, NMRI-Foxn1nu/Foxn1nu nude, mouse, iv, total radioactivity

T1 sequence (P30680 whole entry, the tested form may be a part): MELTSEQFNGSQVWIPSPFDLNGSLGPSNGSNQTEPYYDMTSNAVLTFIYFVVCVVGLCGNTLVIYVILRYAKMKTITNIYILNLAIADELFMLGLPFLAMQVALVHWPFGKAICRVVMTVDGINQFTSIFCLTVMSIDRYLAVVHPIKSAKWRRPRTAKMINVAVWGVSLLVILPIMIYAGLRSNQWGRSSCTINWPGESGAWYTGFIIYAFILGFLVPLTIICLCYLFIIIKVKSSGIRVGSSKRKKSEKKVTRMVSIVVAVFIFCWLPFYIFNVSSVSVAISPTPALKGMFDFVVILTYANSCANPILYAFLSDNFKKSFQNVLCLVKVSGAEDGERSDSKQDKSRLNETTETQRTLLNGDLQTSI

EC50 ([3]; RIN1038-rSSTR2GFP, axis log DOTA-ICC-TATE [M], R square 0.9899, read-out: EC50 internalization as printed in Figure S2 D) [M]	cellular uptake: colocalization of ICC dye signal with internalized GFP‐fused SSTR2 ([3]; RIN1038 cells overexpressing SSTR2‐GFP, 1 μM conjugate, 30 min, 37 °C, confocal microscopy)	EC50 ([3]; RIN1038 ratSSTR2‐GFP cells, eleven concentrations 3 pM–300 nM, 30 min, 37 °C, quadruplicates, vesicle area/cell, read-out: EC50 of SSTR2‐GFP fusion protein internalization) [M]	Compound	inhibition of metabolism (AlamarBlue fluorescence, % control) [1]	inhibition of proliferation (cell count, DAPI, % control) [2]	tissue uptake at 1 h ([4]; ex vivo biodistribution uptake in kidneys) [%ID/g]	tissue uptake at 1 h ([4]; ex vivo biodistribution uptake in liver) [%ID/g]
4.21e-10	clearly colocalized	4.2e-10	C[C@@H](O)[C@H](NC(=O)[C@@H]1CSSC[C@H](NC(=O)[C@@H](Cc2ccccc2)NC(=O)c2ccc3c(c2)C(C)(C)/C(=C/C=C/C2=[N+](C)c4ccc(CNC(=O)CNC(=O)CN5CCN(CC(=O)O)CCN(CC(=O)O)CCN(CC(=O)O)CC5)cc4C2(C)C)N3CCCCS(=O)(=O)[O-])C(=O)N[C@@H](Cc2ccc(O)cc2)C(=O)N[C@H](Cc2c[nH]c3ccccc23)C(=O)N[C@@H](CCCCN)C(=O)N[C@@H]([C@@H](C)O)C(=O)N1)C(=O)O [DOTA‐ICC‐TATE]	does not inhibit	does not inhibit		
			C[C@@H](O)[C@H](NC(=O)[C@@H]1CSSC[C@H](NC(=O)[C@@H](Cc2ccccc2)NC(=O)c2ccc3c(c2)C(C)(C)/C(=C/C=C/C2=[N+](C)c4ccc(CNC(=O)CNC(=O)CN5CCN(CC(=O)O)CCN(CC(=O)O)CCN(CC(=O)O)CC5)cc4C2(C)C)N3CCCCS(=O)(=O)[O-])C(=O)N[C@@H](Cc2ccc(O)cc2)C(=O)N[C@H](Cc2c[nH]c3ccccc23)C(=O)N[C@@H](CCCCN)C(=O)N[C@@H]([C@@H](C)O)C(=O)N1)C(=O)O [^68Ga‐DOTA‐ICC‐TATE, metal not drawn]			~30	5
